Measurements as given in patent publication US9504755B2, “Multi-arm polymeric alkanoate conjugates” (Nektar Therapeutics, priority 2008, dated 2016).
“And” between values parts separate entries of the source, which are not always exact repeats. Equal values may be shown once. Marks after values point to notes of the source that are not given here.

What was measured:
[1] = Plasma and tumor pharmacokinetics in H460 tumor-bearing nude mice; type: in vivo, mouse; conditions: for AUClast, analyte docetaxel, plasma / AUClast, analyte docetaxel, tumor / Tmax, analyte docetaxel, plasma / Tmax, analyte docetaxel, tumor / Cmax, analyte docetaxel, plasma / Cmax, analyte docetaxel, tumor: single IV; for AUClast, analyte docetaxel, plasma / AUClast, analyte docetaxel, tumor: 25 mg/kg docetaxel or 33 mg/kg conjugate (MTDs); for Tmax, analyte docetaxel, plasma / Tmax, analyte docetaxel, tumor / Cmax, analyte docetaxel, plasma / Cmax, analyte docetaxel, tumor: 25 mg/kg docetaxel or 33 mg/kg conjugate
Protocol: To assess whether the improved antitumor activity was due to greater plasma and tumor docetaxel exposure following 4-ARM-PEG20K-BA-DOC administration, plasma and tumor homogenates were analyzed after a single IV administration of 4-ARM-PEG20K-BA-DOC or docetaxel in mice bearing H460 tumors. In looking at each of 4-ARM-PEG20K-BA-DOC and docetaxel dosed at their respective maximum tolerated doses (MTDs) of 33 and 25 mg/kg, the following was observed. […] The maximum plasma docetaxel concentration with 4-ARM-PEG20K-BA-DOC was 13-fold lower than that with docetaxel.
The objective of this study was to compare docetaxel pharmacokinetics following 4-ARM-PEG20K-BA-docetaxel with that following docetaxel administration, in plasma and tumor tissue of athymic female mice bearing H460 NSCLC tumors and to determine the effects on complete blood counts. This example summarizes the pharmacokinetic results.
H460 tumor cells were grown in vitro and implanted subcutaneously into female HRLN nude mice. When tumor sizes reached between 172 and 288 mg, animals were dosed by intravenous bolus injection with 25 mg/kg docetaxel or 33 mg/kg 4-ARM-PEG20K-BA-docetaxel at a dosing volume of 10 mL/kg. These dose levels correspond to the maximum tolerated doses for docetaxel and 4-ARM-PEG20K-BA-docetaxel administered on a q7d×3 schedule in this tumor model. Blood and tumor samples (n=7 timepoints with n=3/timepoint) were collected from 0 to 7 days after IV injection. Plasma and tumor samples were analyzed for docetaxel and 4-ARM-PEG20K-BA-docetaxel.

[2] = Stability in phosphate buffered saline; type: physicochemical; conditions: 37° C.
Protocol: The objective of the study was to assess the stability of 4-ARM-PEG20K-BA-docetaxel in mouse, rat, dog, and human plasma.
4-ARM-PEG20K-BA-docetaxel was spiked ([…]; 60 μM) into heparinized, pooled male mouse, rat, and dog plasma; mixed sex pooled human plasma; and phosphate buffered saline. Triplicate samples were incubated at 37° C. for 0, 15, 30, 60, 120, and 240 min. Aliquots were removed at each timepoint and analyzed for disappearance of 4-ARM-PEG20K-BA-docetaxel and appearance of docetaxel using the validated dog plasma analytical method.

LS174T tumors = test: Anti-tumor activity in LS174T colorectal mouse xenograft model; type: in vivo
Protocol: (§1) H460, LS174T and LoVo tumors were established in female athymic nude mice. Groups of 10 mice received a total of three single doses of 4-ARM-PEG20K-BA-DOC or docetaxel administered every 7 days (q7d×3) at several doses up to a maximum tolerated dose (MTD). Control groups received no treatment after tumor implant. Animals were weighed daily for the first five days and twice weekly thereafter. Tumor volumes were measured twice weekly after the first drug injection.
(§2) Anti-tumor activity was measured as changes in tumor volume, time to reach endpoint, and complete or partial tumor regression.
(§3) Treatment outcome was evaluated by Tumor Growth Delay (TGD), which is defined as the increase in median time to endpoint in a treatment group compared to the control group. Here it is expressed as % TGD, as a percentage to the median time to endpoint of the control group.
(§4) A tumor whose volume was reduced to 50% or less for three consecutive measurements compared to its volume on Day 1 was considered to be in partial regression. Complete regression was defined as volume […] 13.5 mm^3 for three consecutive measurements.
(§5) Acceptable toxicity was defined as a group mean body weight (BW) loss of less than 20% during the study and not more than one treatment-related death among ten treated animals.

LoVo tumors = test: Anti-tumor activity in LoVo colorectal mouse xenograft model; type: in vivo
Protocol: as §1, §2, §3, §4, §5

[3] = single IV 33 mg/kg conjugate, listed as Conjugate Lot 2, 33 mg/kg
[4] = listed as 4-ARM-PEG20K-BA-docetaxel
[5] = 16.9 mg/kg (50.7 mg/m^2), q7d×3
[6] = 22.5 mg/kg (67.5 mg/m^2), q7d×3
[7] = 30 mg/kg (90 mg/m^2), q7d×3 (MTD of docetaxel)
[8] = 40 mg/kg (120 mg/m^2), q7d×3 (MTD of 4-ARM-PEG20K-BA-DOC)
[9] = 40 mg/kg (120 mg/m^2), q7d×3 (exceeded MTD)

4-ARM-PEG20K-Butanoate-Linked Docetaxel Conjugate [4-ARM-PEG20K-BA-DOC]
Cmax, analyte conjugate, plasma [1, 3]: 118.209 µg/mL | Cmax, analyte conjugate, tumor [1, 3]: 7.675 µg/mL | AUClast, analyte docetaxel, plasma [1]: 6.013 µg·h/mL | AUClast, analyte docetaxel, tumor [1]: 313,558 hr*ng/mL | AUClast, analyte docetaxel, tumor ([1]; listed as Conjugate Lot 1): 313558 ng·h/mL | AUClast, analyte docetaxel, plasma ([1]; listed as Conjugate Lot 2): 5.57 µg·h/mL | AUClast, analyte docetaxel, tumor ([1]; listed as Conjugate Lot 2): 380617 ng·h/mL | Tmax, analyte docetaxel, plasma [1, 4]: 0.5 h | Tmax, analyte docetaxel, tumor [1, 4]: ≤ 12 h | Cmax, analyte docetaxel, plasma ([1]; listed as Conjugate Lot 1): 0.195 µg/mL | Cmax, analyte docetaxel, tumor ([1]; listed as Conjugate Lot 1): 2.931 µg/mL | Tmax, analyte docetaxel, plasma ([1]; listed as Conjugate Lot 1): 12 h | Tmax, analyte docetaxel, tumor ([1]; listed as Conjugate Lot 1): 12 h | Cmax, analyte docetaxel, plasma ([1]; listed as Conjugate Lot 2): 0.162 µg/mL | Cmax, analyte docetaxel, tumor ([1]; listed as Conjugate Lot 2): 4.623 µg/mL | Docetaxel released at 4 hr (%) ([2]; 60 μM): 0.6% | Mass balance (%) ([2]; 4 hr): 86% | BW Loss (%) (LS174T tumors; [5]): 12.4% | Day of BW Nadir (LS174T tumors; [5]): 23 | No. Surviving/No. Treated Mice (LS174T tumors; [5]): 9/10 | PR (partial regressions) (LS174T tumors; [5]): 0 | TGD (%) (LS174T tumors; [5]): 126* % | BW Loss (%) (LS174T tumors; [6]): 11.1% | Day of BW Nadir (LS174T tumors; [6]): 23 | No. Surviving/No. Treated Mice (LS174T tumors; [6]): 10/10 | PR (partial regressions) (LS174T tumors; [6]): 0 | TGD (%) (LS174T tumors; [6]): 169* % | Day of BW Nadir (LS174T tumors; 30 mg/kg (90 mg/m^2), q7d×3): 23 | No. Surviving/No. Treated Mice (LS174T tumors; 30 mg/kg (90 mg/m^2), q7d×3): 9/10 | BW Loss (%) (LS174T tumors; [7]): 17.9% | TGD (%) (LS174T tumors; [7]): 250% | Day of BW Nadir (LS174T tumors; 40 mg/kg (120 mg/m^2), q7d×3): 23 | No. Surviving/No. Treated Mice (LS174T tumors; 40 mg/kg (120 mg/m^2), q7d×3): 10/10 | BW Loss (%) (LS174T tumors; [8]): 18.8% | TGD (%) (LS174T tumors; [8]): 266% | % TGD fold greater than for docetaxel (LS174T tumors; each at MTD): 1.6 fold | BW Loss (%) (LoVo tumors; [5]): 7.0% | Day of BW Nadir (LoVo tumors; [5]): 21 | No. Surviving/No. Treated Mice (LoVo tumors; [5]): 10/10 | PR (partial regressions) (LoVo tumors; [5]): 0 | TGD (%) (LoVo tumors; [5]): 64** % | BW Loss (%) (LoVo tumors; [6]): 11.0% | Day of BW Nadir (LoVo tumors; [6]): 24 | No. Surviving/No. Treated Mice (LoVo tumors; [6]): 10/10 | PR (partial regressions) (LoVo tumors; [6]): 0 | TGD (%) (LoVo tumors; [6]): 50* % | BW Loss (%) (LoVo tumors; 30 mg/kg (90 mg/m^2), q7d×3): 16.2% | Day of BW Nadir (LoVo tumors; 30 mg/kg (90 mg/m^2), q7d×3): 24 | No. Surviving/No. Treated Mice (LoVo tumors; 30 mg/kg (90 mg/m^2), q7d×3): 10/10 | PR (partial regressions) (LoVo tumors; 30 mg/kg (90 mg/m^2), q7d×3): 0 | TGD (%) (LoVo tumors; 30 mg/kg (90 mg/m^2), q7d×3 (MTD for both agents)): 128% | Day of BW Nadir (LoVo tumors; 40 mg/kg (120 mg/m^2), q7d×3): 24 | No. Surviving/No. Treated Mice (LoVo tumors; 40 mg/kg (120 mg/m^2), q7d×3): 10/10 | BW Loss (%) (LoVo tumors; [9]): 22.6% | TGD (%) (LoVo tumors; [9]): 148% and 148 ^1%
